Test results from patent US20160376333A1.

Columns and labels:
[1] = biological target: Epstein-Barr virus BHRF1 a.a. 1-161 with C-terminal avi-6his tag (Epstein-Barr virus)
[2] = biological target: Epstein-Barr virus BHRF1 a.a. 1-161 with C-terminal avi-6his tag (Epstein-Barr virus); remark: listed apart in the source
[3] = biological target: Epstein-Barr virus BHRF1 a.a. 1-161 with C-terminal avi-6his tag (Epstein-Barr virus); assay: crystal structure PDB 2WH6 of Bim-BH3 bound to BHRF1; solvent-accessible surface buried in the complex

Sequence of Bim-BH3 (peptide) (O43521 141-166): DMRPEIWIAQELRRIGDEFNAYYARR

Bim-BH3 (peptide)
buried contact surface on BHRF1 [1]: 908 Å2
buried contact surface on Bim-BH3 [2]: 1100 Å2
Total buried SASA [3]: 2000 Å2
